This is an account of results in US20190351049A1 (Regeneron, published 2019).

The chains are these.
B1: H1H15211P (antibody, V domains shown)
VH: EVQLVESGGGLVQPGGSLRLSCVVSGFTFSNYDMSWVRQAPGRGLEWVSAIRGSGFNTYYADSVKGRFTISRDNSKNTLYLQMNSLRAEDTAVYYCAKDGSIVSMDYWGQGTLVTVSS
VL: not shown
B2: H1H15237P2 (antibody, V domains shown)
VH: EVQLVESGGGLVQPGGSLRLSCAASGFTSNSYPMSWVRQAPGKGLEWVSGISGRGGNTYYADSVKGRFTISRDNSKNTLYLQMNSLRVEDTAVYYCAETGTAFDYWGQGTLVTVSS
VL: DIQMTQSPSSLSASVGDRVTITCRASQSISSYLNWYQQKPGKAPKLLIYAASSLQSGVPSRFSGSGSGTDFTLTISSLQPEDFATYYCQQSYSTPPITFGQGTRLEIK
B3: H1H15203P (antibody, V domains shown)
VH: EVQLVESGGDLVQPGGSLRVSCAASGFTFSNYDMYWVRQAPGKGLEWVSVISGIGATTYYADSVKGRFTISRDNSKNTVFLQMNSLRAEDTAVYYCVKGGPIVATDYWGQGTLVTVSS
VL: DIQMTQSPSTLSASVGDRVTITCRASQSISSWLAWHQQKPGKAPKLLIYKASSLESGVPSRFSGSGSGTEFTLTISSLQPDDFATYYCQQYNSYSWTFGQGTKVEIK
B4: H1H15231P2 (antibody, V domains shown)
VH: QLQLQESGPGLVKPSETLSLTCTVSGGSISSNTYYWGWIRQPPGKGLEWIGTIYYTGNTYYKSSLKSRVTISVDTSRNQFSLKLTSVTAADTAVYYCARQFADLNYVDYWGQGTLVTVSS
VL: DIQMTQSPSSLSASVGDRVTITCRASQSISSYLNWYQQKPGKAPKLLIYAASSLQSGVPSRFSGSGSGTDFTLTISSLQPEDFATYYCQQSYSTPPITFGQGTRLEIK
B5: H1H15188P (antibody, V domains shown)
VH: QVQLVQSGAEVKKPGSSVKVSCKASGGSFSVYAISWVRQAPGQGLEWMGGIIPIFGTANYAQKFQDRFTITTDESTSTAYMELSSLRSEDTAMYYCAREGDIVVLPAGKGGMDVWGQGTTVTVSS
VL: DIVMTQSPLSLPVTPGEPASISCRSSQSLLHGNGYNYLDWYLQKPGQSPQLLIYLVSHRASGVPDRFSGSGSGTDFTLKISRVEAEDVGVYYCMQALQSPWTFGQGTKVEIK
B6: H1H15249P2 (antibody, V domains shown)
VH: QLQLQESGPGLVKPSETLSLTCTVSGGSISNNNYYWGWIRQPPGKGLDWIGSIYYSGNTYYNPSLKSRVTISVDTSKNQFSLKMSSVTATDTALYYCARQGADHNWVDPWGQGTLVTVSS
VL: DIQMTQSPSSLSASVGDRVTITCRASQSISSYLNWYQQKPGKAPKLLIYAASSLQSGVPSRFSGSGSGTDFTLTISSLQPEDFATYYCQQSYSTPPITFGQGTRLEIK

The first experiment concerns the target T1, MERS RBD-hFc (MERS-CoV (isolate EMC/2012)). Description: SPR Biacore, captured mAb, 25 C.
On to B1, for which binding was characterised by a dissociation constant (Kd) of 0.0775 nM, the koff turned out to be 8.72e-05 s⁻¹, the on-rate constant (kon) stood at 1.13e+06 M⁻¹ s⁻¹ and the t1/2 turned out to be 133 min.

In the case of B2, the dissociation constant (Kd) turned out to be 0.274 nM, the off-rate (koff) turned out to be 0.00012 s⁻¹, the kon was 439000 M⁻¹ s⁻¹ and the t1/2 was 96 min.

For B3, the dissociation constant Kd was 0.273 nM, the koff is 0.000121 s⁻¹, the kon was found to be 443000 M⁻¹ s⁻¹ and the t1/2 turned out to be 95 min.

In turn, B4 registered a Kd of 0.116 nM, a koff of 7.44e-05 s⁻¹, a kon of 639000 M⁻¹ s⁻¹ and a t1/2 of 155 min.

Consider B5, for which the dissociation constant Kd was 0.0825 nM, the off-rate constant (koff) came to 0.000122 s⁻¹, the on-rate constant (kon) is 1.48e+06 M⁻¹ s⁻¹ and the t1/2 came out at 95 min.

In turn, B6 gave an equilibrium dissociation constant (Kd) of 0.227 nM, a koff of 7.91e-05 s⁻¹, a kon of 349000 M⁻¹ s⁻¹ and a t1/2 of 146 min.

In the next experiment the target is T1, MERS RBD-hFc. Put plainly: SPR Biacore, captured mAb, 37 C.
Molecule B1 showed a dissociation constant (Kd) of 0.194 nM, an off-rate (koff) of 0.00016 s⁻¹, a kon of 827000 M⁻¹ s⁻¹ and a t1/2 of 72 min.

With B2, the Kd came out at 0.797 nM, the koff was determined as 0.000409 s⁻¹, the on-rate constant (kon) was 514000 M⁻¹ s⁻¹ and the t1/2 came to 28 min.

B3 gave a dissociation constant Kd of 0.645 nM, a koff of 0.000323 s⁻¹, a kon of 501000 M⁻¹ s⁻¹ and a t1/2 of 36 min.

B4 returned a dissociation constant Kd of 0.139 nM, a koff of 9.19e-05 s⁻¹, a kon of 659000 M⁻¹ s⁻¹ and a t1/2 of 126 min.

Molecule B5 showed a dissociation constant Kd of 0.167 nM, a koff of 0.000265 s⁻¹, a kon of 1.59e+06 M⁻¹ s⁻¹ and a t1/2 of 44 min.

B6 came in with a dissociation constant Kd of 0.288 nM, a dissociation rate constant (koff) of 0.000127 s⁻¹, an association rate constant (kon) of 442000 M⁻¹ s⁻¹ and a t1/2 of 91 min.
